Assay results published in patent US20030194403A1.

Biological target: soluble epidermal growth factor receptor (EGFR), purified from A431 cells (Sigma E 3641) (human) (UniProt P00533)
Assay: ELISA, inhibition of EGF-biotin binding to immobilized EGFR (FIG. 8)

IC50: 0.03 µM
Substance: m225, a mouse IgG2a anti-EGFR antibody (hybridoma ATCC HB-8508)
